T1: human CC chemokine receptor 1 (human CCR1) (human, UniProt P32246 1-355)
T1 construct: endogenous on THP-1 cells in the migration assays; also called hCCR1; CHO-S-hCCR1 (expressing cells)
T1 sequence: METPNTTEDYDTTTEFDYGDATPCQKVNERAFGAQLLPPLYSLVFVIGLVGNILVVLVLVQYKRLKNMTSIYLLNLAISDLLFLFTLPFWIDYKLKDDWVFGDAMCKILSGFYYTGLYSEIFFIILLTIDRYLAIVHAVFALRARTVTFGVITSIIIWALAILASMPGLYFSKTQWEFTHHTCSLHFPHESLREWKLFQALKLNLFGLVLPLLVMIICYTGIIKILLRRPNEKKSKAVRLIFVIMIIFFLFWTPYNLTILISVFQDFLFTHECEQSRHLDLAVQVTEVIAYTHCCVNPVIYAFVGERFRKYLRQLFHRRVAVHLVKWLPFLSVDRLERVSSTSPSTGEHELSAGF


biological target: T1, human CC chemokine receptor 1 (human …); assay: flow cytometry on CHO-S-hCCR1 cells; bound = fluorescence 10 times or more that of isotype control hzDNP1
Procedure: (§1) The antigen affinity of the chKM5908′ antibody, which is a VL-substituted chimeric antibody, was measured by flow cytometry using the CHO-S-hCCR1 cells produced in Example 2. The cells were collected by centrifugation, the supernatant was removed, and the cells were suspended in PBS (Staining Medium, hereinafter, abbreviated as SM) containing 2% fetal bovine serum (FBS), 0.05% NaN₃, and 1 mM EDTA. Next, the cells were seeded in a 96-well plate so that the number of cells is 1×10⁵ per well, and the chKM5908′ antibody was added at each final concentration of 10,000, 2,000, 400, 80, 16, and 3.2 ng/mL, and the reaction was performed at 4° C. for 60 minutes. After washing the cells with SM, Goat F (ab′)₂ Anti-Human IgG PE (γ chain specific) (Southern Biotech) diluted 500-fold with SM was added and reacted at 4° C. for 60 minutes. After washing the cells with SM, the cells were resuspended in 50 μL of SM, and the fluorescence intensity was measured by the flow cytometry (FACS Canto II, BD Biosciences).
Next, a modified antibody was obtained using the method described in Example 12-(3). […] Hereinafter referred to as hzDNP1)] were determined to bind to the human CCR1.

Binder	binding result
hzKM5916 LV2HV3 antibody (antibody, V domains shown, humanized; also called hzmAb5916 LV2HV3) VH: QVQLQESGGGLVKPGGSLKLSCAASGFTFSRNAMSWVRQTPEKRLEWVAYISSGSDYIYYADTVKGRFTISRDNAKNTLYLQMSSLRSEDTAMYYCTRFSYGYGKNAPDYWGQGTMVTVSS VL: DIQMTQSPSSLSASVGDRVTITCKASQDINKYIAWYQHKPGKGPKLLIHYTSSLQPGVPSRFSGSGSGTDFSFTISSLQPEDLATYYCLQYDYTMTFGGGTKVEIK	binds

biological target: T1, human CC chemokine receptor 1 (human …); assay: flow cytometry on CHO-S-hCCR1 cells; bound = fluorescence 10 times or more that of isotype control chDNP1
Procedure: as §1
1996 June; 33 (9):759-68, hereinafter, referred to as chDNP1)] were determined to be bound to the human CCR1.

Binder	binding result
chKM5908′ mut05 (antibody, V domains shown) VH: QVQLKQSGPGLVQPSQSLSITCTVSGFSLNNYGVHWVRQPPGKGLEWLGVTWSAGTTVYNAAFISRLSISKDDSKSQVFFKMNSLQAGDTAIYYCAKDGSRYYTAMDYWGQGTSVTVSS VL: DVVMTQTPLSLPVSLGDQASIFCRSSQSLVHRNGITFFHWYLQKPGQSPKLLIYKVSNRFSGVPDRFSGSGSGTDFTLKISRVAPDDLGVYFCSQGTHVPPTFGGGTKLEIK	binds
chKM5908′ mut09 (antibody, V domains shown) VH: QVQLKQSGPGLVQPSQSLSITCTVSGFSLNNYGVHWVRQPPGKGLEWLGVIWSAGTTVYNAAFISRLSISKDDSKSQVFFKMNSLQAGDTAIYYCAKDGSRAYTAMDYWGQGTSVTVSS VL: DVVMTQTPLSLPVSLGDQASIFCRSSQSLVHRNGITFFHWYLQKPGQSPKLLIYKVSNRFSGVPDRFSGSGSGTDFTLKISRVAPDDLGVYFCSQGTHVPPTFGGGTKLEIK	binds
chKM5908′ mut15 (antibody, V domains shown) VH: QVQLKQSGPGLVQPSQSLSITCTVSGFSLNNYGVHWVRQPPGKGLEWLGVTWSAGTTVYNAAFISRLSISKDDSKSQVFFKMNSLQAGDTAIYYCAKDGSRAYAAMDYWGQGTSVTVSS VL: DVVMTQTPLSLPVSLGDQASIFCRSSQSLVHRNGITFFHWYLQKPGQSPKLLIYKVSNRFSGVPDRFSGSGSGTDFTLKISRVAPDDLGVYFCSQGTHVPPTFGGGTKLEIK	binds
chKM5908′ mut06 (antibody, V domains shown) VH: QVQLKQSGPGLVQPSQSLSITCTVSGFSLNNYGVHWVRQPPGKGLEWLGVIWSAGTTAYNAAFISRLSISKDDSKSQVFFKMNSLQAGDTAIYYCAKDGSRYYTAMDYWGQGTSVTVSS VL: DVVMTQTPLSLPVSLGDQASIFCRSSQSLVHRNGITFFHWYLQKPGQSPKLLIYKVSNRFSGVPDRFSGSGSGTDFTLKISRVAPDDLGVYFCSQGTHVPPTFGGGTKLEIK	binds
chKM5908′ mut10 (antibody, V domains shown) VH: QVQLKQSGPGLVQPSQSLSITCTVSGFSLNNYGVHWVRQPPGKGLEWLGVIWSAGTTVYNAAFISRLSISKDDSKSQVFFKMNSLQAGDTAIYYCAKDGSRYYAAMDYWGQGTSVTVSS VL: DVVMTQTPLSLPVSLGDQASIFCRSSQSLVHRNGITFFHWYLQKPGQSPKLLIYKVSNRFSGVPDRFSGSGSGTDFTLKISRVAPDDLGVYFCSQGTHVPPTFGGGTKLEIK	binds
chKM5908′ mut14 (antibody, V domains shown) VH: QVQLKQSGPGLVQPSQSLSITCTVSGFSLNNYGVHWVRQPPGKGLEWLGVTWSAGTTVYNAAFASRLSISKDDSKSQVFFKMNSLQAGDTAIYYCAKDGSRYYTAMDYWGQGTSVTVSS VL: DVVMTQTPLSLPVSLGDQASIFCRSSQSLVHRNGITFFHWYLQKPGQSPKLLIYKVSNRFSGVPDRFSGSGSGTDFTLKISRVAPDDLGVYFCSQGTHVPPTFGGGTKLEIK	binds
chKM5908′ mut04 (antibody, V domains shown) VH: QVQLKQSGPGLVQPSQSLSITCTVSGFSLNNYGVHWVRQPPGKGLEWLGVIWSAGTTVYNAAFISRLSISKDDSKSQVFFKMNSLQAGDTAIYYCAKDGSRYYTAMDYWGQGTSVTVSS VL: DVVMTQTPLSLPVSLGDQASIFCRSSQSLVHRNGITFAHWYLQKPGQSPKLLIYKISNRFSGVPDRFSGSGSGTDFTLKISRVAPDDLGVYFCSQGTHVPPTFGGGTKLEIK	binds
chKM5908′ mut17 (antibody, V domains shown) VH: QVQLKQSGPGLVQPSQSLSITCTVSGFSLNNYGVHWVRQPPGKGLEWLGVTWSAGTTVYNAAFISRLSISKDDSKSQVFFKMNSLQAGDTAIYYCAKDGSRYYTAMDYWGQGTSVTVSS VL: DVVMTQTPLSLPVSLGDQASIFCRSSQSLVHRNGITFAHWYLQKPGQSPKLLIYKVSNRFSGVPDRFSGSGSGTDFTLKISRVAPDDLGVYFCSQGTHVPPTFGGGTKLEIK	binds
chKM5908′ mut11 (antibody, V domains shown) VH: QVQLKQSGPGLVQPSQSLSITCTVSGFSLNNYGVHWVRQPPGKGLEWLGVTWSAGTTAYNAAFASRLSISKDDSKSQVFFKMNSLQAGDTAIYYCAKDGSRYYTAMDYWGQGTSVTVSS VL: DVVMTQTPLSLPVSLGDQASIFCRSSQSLVHRNGITFFHWYLQKPGQSPKLLIYKVSNRFSGVPDRFSGSGSGTDFTLKISRVAPDDLGVYFCSQGTHVPPTFGGGTKLEIK	binds
chKM5908′ mut13 (antibody, V domains shown) VH: QVQLKQSGPGLVQPSQSLSITCTVSGFSLNNYGVHWVRQPPGKGLEWLGVTWSAGTTVYNAAFASRLSISKDDSKSQVFFKMNSLQAGDTAIYYCAKDGSRYYAAMDYWGQGTSVTVSS VL: DVVMTQTPLSLPVSLGDQASIFCRSSQSLVHRNGITFFHWYLQKPGQSPKLLIYKVSNRFSGVPDRFSGSGSGTDFTLKISRVAPDDLGVYFCSQGTHVPPTFGGGTKLEIK	binds
chKM5908′ mut07 (antibody, V domains shown) VH: QVQLKQSGPGLVQPSQSLSITCTVSGFSLNNYGVHWVRQPPGKGLEWLGVIWSAGTTVYNAAAISRLSISKDDSKSQVFFKMNSLQAGDTAIYYCAKDGSRYYTAMDYWGQGTSVTVSS VL: DVVMTQTPLSLPVSLGDQASIFCRSSQSLVHRNGITFFHWYLQKPGQSPKLLIYKVSNRFSGVPDRFSGSGSGTDFTLKISRVAPDDLGVYFCSQGTHVPPTFGGGTKLEIK	binds
chKM5908′ mut18 (antibody, V domains shown) VH: QVQLKQSGPGLVQPSQSLSITCTVSGFSLNNYGVHWVRQPPGKGLEWLGVIWSAGTTVYNAAAISRLSISKDDSKSQVFFKMNSLQAGDTAIYYCAKDGSRYYTAMDYWGQGTSVTVSS VL: DVVMTQTPLSLPVSLGDQASIFCRSSQSLVHRNGITFAHWYLQKPGQSPKLLIYKVSNRFSGVPDRFSGSGSGTDFTLKISRVAPDDLGVYFCSQGTHVPPTFGGGTKLEIK	binds
chKM5908′ mut12 (antibody, V domains shown) VH: QVQLKQSGPGLVQPSQSLSITCTVSGFSLNNYGVHWVRQPPGKGLEWLGVTWSAGTTVYNAAFASRLSISKDDSKSQVFFKMNSLQAGDTAIYYCAKDGSRAYAAMDYWGQGTSVTVSS VL: DVVMTQTPLSLPVSLGDQASIFCRSSQSLVHRNGITFFHWYLQKPGQSPKLLIYKVSNRFSGVPDRFSGSGSGTDFTLKISRVAPDDLGVYFCSQGTHVPPTFGGGTKLEIK	binds
chKM5908′ mut08 (antibody, V domains shown) VH: QVQLKQSGPGLVQPSQSLSITCTVSGFSLNNYGVHWVRQPPGKGLEWLGVIWSAGTTVYNAAFASRLSISKDDSKSQVFFKMNSLQAGDTAIYYCAKDGSRYYTAMDYWGQGTSVTVSS VL: DVVMTQTPLSLPVSLGDQASIFCRSSQSLVHRNGITFFHWYLQKPGQSPKLLIYKVSNRFSGVPDRFSGSGSGTDFTLKISRVAPDDLGVYFCSQGTHVPPTFGGGTKLEIK	binds

Source: patent US20240026017A1 (Kyowa Kirin, published 2024)
